Test results published in PMC8488244.

Legend:
[1] = biological target: GmCHS7:PDZlig-CeGFP (Glycine max) (UniProt P30081)
[2] = biological target: GmCHS7:PDZlig-CeGFP (Glycine max) (UniProt P30081); remark: listed apart in the source

Sequence of UniProt P30081 (P30081 whole entry): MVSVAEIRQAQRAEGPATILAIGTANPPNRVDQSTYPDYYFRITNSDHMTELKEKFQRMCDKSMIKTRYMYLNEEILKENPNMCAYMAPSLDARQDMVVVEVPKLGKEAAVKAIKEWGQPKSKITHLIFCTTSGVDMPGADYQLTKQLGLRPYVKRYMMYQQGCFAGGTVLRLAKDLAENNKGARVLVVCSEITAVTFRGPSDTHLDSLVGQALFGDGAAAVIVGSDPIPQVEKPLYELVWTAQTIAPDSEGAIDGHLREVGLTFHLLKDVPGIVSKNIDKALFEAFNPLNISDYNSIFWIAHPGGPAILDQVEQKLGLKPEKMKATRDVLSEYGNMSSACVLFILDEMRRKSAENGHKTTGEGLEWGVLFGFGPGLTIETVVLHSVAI

## GuCHR:PDZ-NeGFP (from UniProt Q61234 81-164)
[1]
  CHR ratio (CHR product to total CHS product) in E. coli BL21(DE3)-pYH153: 54.7%
[2]
  titer of apigenin in strain DHF-2 (pYH153) compared to DHF-1 (pYH141): 1.1 fold
